The source of these data is FireProtDB (doi:10.1016/0168-1656(93)90129-b).

For the data set the following is noted: Escherichia coli (strain K12), CD, reversible: yes, whole UniProt chain shown; for Tm: Thermal; for denaturant midpoint (higher = more stable) / unfolding free energy: 25 °C, GdnHCl.

B1: Ribonuclease HI wild type, P0A7Y4 (protein)
chain: MLKQVEIFTDGSCLGNPGPGGYGAILRYRGREKTFSAGYTRTTNNRMELMAAIVALEALKEHCEVILSTDSQYVRQGITQWIHNWKKRGWKTADKKPVKNVDLWQRLDAALGQHQIKWEWVKGHAGHPENERCDELARAAAMNPTLEDTGYQVEV
Broadly, the Tm is the temperature at the midpoint of the melting transition. With B1, the melting temperature (Tm) worked out at 49.4 °C (pH 3, glycine-HCl 10 mM); 52.7 °C (pH 5.5, Sodium acetate 20 mM); 50.2 °C (pH 7.8, Sodium phosphate 20 mM). Moreover, the “denaturant midpoint (higher = more stable)” value by setting is: (pH 5.5, Sodium acetate 20 mM) 1.79 M; (pH 8.2, Tris-HCl 20 mM) 1.65 M. Besides, the unfolding free energy reads like this: (pH 5.5, Sodium acetate 20 mM) 9.21 kcal/mol; (pH 8.2, Tris-HCl 20 mM) 8.49 kcal/mol.
